Data: paper PMC2635894 (Biochemistry, 2008)
Positions count from the first letter of the chain named. coumarin = not defined here

T1: HDAC8 (histone deacetylase 8) (Homo sapiens, UniProt Q9BY41, D101N)
T1 sequence (Q9BY41 1-377 D101N): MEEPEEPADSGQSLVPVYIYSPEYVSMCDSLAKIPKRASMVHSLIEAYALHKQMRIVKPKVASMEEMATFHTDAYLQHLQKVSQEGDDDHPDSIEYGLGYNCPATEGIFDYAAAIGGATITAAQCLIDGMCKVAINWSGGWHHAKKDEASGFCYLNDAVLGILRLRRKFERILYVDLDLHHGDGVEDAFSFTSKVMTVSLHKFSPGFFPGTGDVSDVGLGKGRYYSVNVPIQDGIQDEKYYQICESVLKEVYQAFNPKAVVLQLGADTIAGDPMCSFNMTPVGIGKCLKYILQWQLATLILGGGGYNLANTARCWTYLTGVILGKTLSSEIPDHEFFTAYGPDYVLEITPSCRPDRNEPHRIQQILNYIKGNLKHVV

T2: HDAC8 (histone deacetylase 8) (Homo sapiens, UniProt Q9BY41, D101E)
T2 sequence (Q9BY41 1-377 D101E): T1 sequence (Q9BY41 1-377 D101N) with N101E

T3: HDAC8 (histone deacetylase 8) (Homo sapiens, UniProt Q9BY41, D101A)
T3 sequence (Q9BY41 1-377 D101A): T1 sequence (Q9BY41 1-377 D101N) with N101A

T4: D101E HDAC8 (human histone deacetylase 8, D101E variant) (human, UniProt Q9BY41 1-377, D101E)
T4 sequence: T1 sequence (Q9BY41 1-377 D101N) with N101E

T5: D101N HDAC8 (human histone deacetylase 8, D101N variant) (human, UniProt Q9BY41 1-377, D101N)
T5 sequence: T1 sequence (Q9BY41 1-377 D101N)

T6: D101A HDAC8 (human histone deacetylase 8, D101A variant) (human, UniProt Q9BY41 1-377, D101A)
T6 sequence: T1 sequence (Q9BY41 1-377 D101N) with N101A

T7: D101L HDAC8 (human histone deacetylase 8, D101L variant) (human, UniProt Q9BY41 1-377, D101L)
T7 sequence: T1 sequence (Q9BY41 1-377 D101N) with N101L


Legend:
[1] = biological target: T1, HDAC8 (histone deacetylase 8); experiment: X-ray crystal structure; type: binding
[2] = biological target: T2, HDAC8 (histone deacetylase 8); experiment: X-ray crystal structure; type: binding
[3] = biological target: T3, HDAC8 (histone deacetylase 8); experiment: X-ray crystal structure; type: binding
[4] = biological target: T4, D101E HDAC8 (human histone deacetylase …); experiment: cell-based or functional assay
[5] = biological target: T5, D101N HDAC8 (human histone deacetylase …); experiment: cell-based or functional assay
[6] = biological target: T6, D101A HDAC8 (human histone deacetylase …); experiment: cell-based or functional assay
[7] = biological target: T7, D101L HDAC8 (human histone deacetylase …); experiment: cell-based or functional assay

| KM of deacetylation (Fluor de Lys assay, Co2+ enzyme, 25°C, pH 8.0) [4] [μM] | kcat/KM of deacetylation (Fluor de Lys assay, Co2+ enzyme, 25°C, pH 8.0) [4] [M^−1s^−1] | KM of deacetylation (Fluor de Lys assay, Co2+ enzyme, 25°C, pH 8.0) [5] [μM] | kcat/KM of deacetylation (Fluor de Lys assay, Co2+ enzyme, 25°C, pH 8.0) [5] [M^−1s^−1] | KM of deacetylation (Fluor de Lys assay, Co2+ enzyme, 25°C, pH 8.0) [6] [μM] | kcat/KM of deacetylation (Fluor de Lys assay, Co2+ enzyme, 25°C, pH 8.0) [6] [M^−1s^−1] | KM of deacetylation (Fluor de Lys assay, Co2+ enzyme, 25°C, pH 8.0) [7] [μM] | Molecule | X-ray crystal structure (2.65 Å) [1] | X-ray crystal structure (2.85 Å) [2] | X-ray crystal structure (2.55 Å) [3] |
| --- | --- | --- | --- | --- | --- | --- | --- | --- | --- | --- |
|  |  |  |  |  |  |  | CN(C)c1ccc(C(=O)NCCCCCCC(=O)NO)cc1 [M344, 4-(dimethylamino)-N-[7-(hydroxyamino)-7-oxoheptyl]-benzamide] | The alternate conformer is stabilized by a hydrogen bond interaction with N101 in D101N HDAC8 | Two conformations of the bound inhibitor are observed in the active sites of D101E, D101A and D101N HDACs | Two conformations of the bound inhibitor are observed in the active sites of D101E, D101A and D101N HDACs |
| 140 | 1100 | > 1000 | 0.23 | > 1000 | 0.23 | > 1000 | Ac-RHK(Ac)K(Ac)-coumarin (reading uncertain) [acetylated tetrapeptide substrate (N-acetyl-arginine-histidine-acetyllysine-acetyllysine-coumarin)] |  |  |  |
